# Assay results reported in IntAct's records for PubMed 24535599.
# B1: Growth factor receptor-bound protein 14 (Homo sapiens), Q14449 (parent)
# chain: MTTSLQDGQSAASRAAARDSPLAAQVCGAAQGRGDAHDLAPAPWLHARALLPLPDGTRGCAADRRKKKDLDVPEMPSIPNPFPELCCSPFTSVLSADLFPKANSRKKQVIKVYSEDETSRALDVPSDITARDVCQLLILKNHYIDDHSWTLFEHLPHIGVERTIEDHELVIEVLSNWGIEEENKLYFRKNYAKYEFFKNPMYFFPEHMVSFATETNGEISPTQILQMFLSSSTYPEIHGFLHAKEQGKKSWKKIYFFLRRSGLYFSTKGTSKEPRHLQFFSEFGNSDIYVSLAGKKKHGAPTNYGFCFKPNKAGGPRDLKMLCAEEEQSRTCWVTAIRLLKYGMQLYQNYMHPYQGRSGCSSQSISPMRSISENSLVAMDFSGQKSRVIENPTEALSVAVEEGLAWRKKGCLRLGTHGSPTASSQSSATNMAIHRSQPWFHHKISRDEAQRLIIQQGLVDGVFLVRDSQSNPKTFVLSMSHGQKIKHFQIIPVEDDGEMFHTLDDGHTRFTDLIQLVEFYQLNKGVLPCKLKHYCARIAL
# Variants of: B1
# Conditions: with INSR
row,effect of a mutation on the interaction,Variant
1,increasing interaction strength,S358A;S362A;S366A
